From paper doi:10.1101/2023.10.25.23297129 (medRxiv, 2023)

T1: wildtype human HMGCS1 (3-hydroxy-3-methylglutaryl-coenzyme A synthase) (human), Q01581
T1 chain: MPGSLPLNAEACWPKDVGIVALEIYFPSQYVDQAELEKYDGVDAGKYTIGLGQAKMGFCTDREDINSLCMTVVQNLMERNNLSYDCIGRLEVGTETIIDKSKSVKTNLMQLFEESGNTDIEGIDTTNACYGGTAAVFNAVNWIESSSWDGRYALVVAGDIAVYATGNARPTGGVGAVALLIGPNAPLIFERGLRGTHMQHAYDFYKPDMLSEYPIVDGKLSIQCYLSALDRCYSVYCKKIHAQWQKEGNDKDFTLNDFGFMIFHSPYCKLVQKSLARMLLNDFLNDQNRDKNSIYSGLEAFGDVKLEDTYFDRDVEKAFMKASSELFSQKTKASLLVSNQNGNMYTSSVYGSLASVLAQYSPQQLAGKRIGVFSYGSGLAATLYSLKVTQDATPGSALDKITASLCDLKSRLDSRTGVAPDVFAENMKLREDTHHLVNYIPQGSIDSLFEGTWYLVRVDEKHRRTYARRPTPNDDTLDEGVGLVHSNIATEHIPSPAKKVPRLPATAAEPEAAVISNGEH


Tests used:
[1] = target: T1, wildtype human HMGCS1 …; test: SEC; settings: remark: other sources report otherwise
SEC = target: the molecule itself; test: SEC

| stoichiometry N [1] | Binder | stoichiometry N (SEC) |
| --- | --- | --- |
| 2 | wildtype human HMGCS1 (3-hydroxy-3-methylglutaryl-coenzyme A synthase), Q01581 1-520 (enzyme) MPGSLPLNAEACWPKDVGIVALEIYFPSQYVDQAELEKYDGVDAGKYTIGLGQAKMGFCTDREDINSLCMTVVQNLMERNNLSYDCIGRLEVGTETIIDKSKSVKTNLMQLFEESGNTDIEGIDTTNACYGGTAAVFNAVNWIESSSWDGRYALVVAGDIAVYATGNARPTGGVGAVALLIGPNAPLIFERGLRGTHMQHAYDFYKPDMLSEYPIVDGKLSIQCYLSALDRCYSVYCKKIHAQWQKEGNDKDFTLNDFGFMIFHSPYCKLVQKSLARMLLNDFLNDQNRDKNSIYSGLEAFGDVKLEDTYFDRDVEKAFMKASSELFSQKTKASLLVSNQNGNMYTSSVYGSLASVLAQYSPQQLAGKRIGVFSYGSGLAATLYSLKVTQDATPGSALDKITASLCDLKSRLDSRTGVAPDVFAENMKLREDTHHLVNYIPQGSIDSLFEGTWYLVRVDEKHRRTYARRPTPNDDTLDEGVGLVHSNIATEHIPSPAKKVPRLPATAAEPEAAVISNGEH | – |
| – | human HMGCS1 p.Ser447Pro (enzyme, UniProt Q01581 1-520, looked up) MPGSLPLNAEACWPKDVGIVALEIYFPSQYVDQAELEKYDGVDAGKYTIGLGQAKMGFCTDREDINSLCMTVVQNLMERNNLSYDCIGRLEVGTETIIDKSKSVKTNLMQLFEESGNTDIEGIDTTNACYGGTAAVFNAVNWIESSSWDGRYALVVAGDIAVYATGNARPTGGVGAVALLIGPNAPLIFERGLRGTHMQHAYDFYKPDMLSEYPIVDGKLSIQCYLSALDRCYSVYCKKIHAQWQKEGNDKDFTLNDFGFMIFHSPYCKLVQKSLARMLLNDFLNDQNRDKNSIYSGLEAFGDVKLEDTYFDRDVEKAFMKASSELFSQKTKASLLVSNQNGNMYTSSVYGSLASVLAQYSPQQLAGKRIGVFSYGSGLAATLYSLKVTQDATPGSALDKITASLCDLKSRLDSRTGVAPDVFAENMKLREDTHHLVNYIPQGSIDPLFEGTWYLVRVDEKHRRTYARRPTPNDDTLDEGVGLVHSNIATEHIPSPAKKVPRLPATAAEPEAAVISNGEH | 2 |
| – | human HMGCS1 p.Gln29Leu (enzyme, UniProt Q01581 1-520, looked up) MPGSLPLNAEACWPKDVGIVALEIYFPSLYVDQAELEKYDGVDAGKYTIGLGQAKMGFCTDREDINSLCMTVVQNLMERNNLSYDCIGRLEVGTETIIDKSKSVKTNLMQLFEESGNTDIEGIDTTNACYGGTAAVFNAVNWIESSSWDGRYALVVAGDIAVYATGNARPTGGVGAVALLIGPNAPLIFERGLRGTHMQHAYDFYKPDMLSEYPIVDGKLSIQCYLSALDRCYSVYCKKIHAQWQKEGNDKDFTLNDFGFMIFHSPYCKLVQKSLARMLLNDFLNDQNRDKNSIYSGLEAFGDVKLEDTYFDRDVEKAFMKASSELFSQKTKASLLVSNQNGNMYTSSVYGSLASVLAQYSPQQLAGKRIGVFSYGSGLAATLYSLKVTQDATPGSALDKITASLCDLKSRLDSRTGVAPDVFAENMKLREDTHHLVNYIPQGSIDSLFEGTWYLVRVDEKHRRTYARRPTPNDDTLDEGVGLVHSNIATEHIPSPAKKVPRLPATAAEPEAAVISNGEH | 2 |
| – | human HMGCS1 p.Met70Thr (enzyme, UniProt Q01581 1-520, looked up) MPGSLPLNAEACWPKDVGIVALEIYFPSQYVDQAELEKYDGVDAGKYTIGLGQAKMGFCTDREDINSLCTTVVQNLMERNNLSYDCIGRLEVGTETIIDKSKSVKTNLMQLFEESGNTDIEGIDTTNACYGGTAAVFNAVNWIESSSWDGRYALVVAGDIAVYATGNARPTGGVGAVALLIGPNAPLIFERGLRGTHMQHAYDFYKPDMLSEYPIVDGKLSIQCYLSALDRCYSVYCKKIHAQWQKEGNDKDFTLNDFGFMIFHSPYCKLVQKSLARMLLNDFLNDQNRDKNSIYSGLEAFGDVKLEDTYFDRDVEKAFMKASSELFSQKTKASLLVSNQNGNMYTSSVYGSLASVLAQYSPQQLAGKRIGVFSYGSGLAATLYSLKVTQDATPGSALDKITASLCDLKSRLDSRTGVAPDVFAENMKLREDTHHLVNYIPQGSIDSLFEGTWYLVRVDEKHRRTYARRPTPNDDTLDEGVGLVHSNIATEHIPSPAKKVPRLPATAAEPEAAVISNGEH | 2 |
| – | human HMGCS1 p.Cys268Ser (enzyme, UniProt Q01581 1-520, looked up) MPGSLPLNAEACWPKDVGIVALEIYFPSQYVDQAELEKYDGVDAGKYTIGLGQAKMGFCTDREDINSLCMTVVQNLMERNNLSYDCIGRLEVGTETIIDKSKSVKTNLMQLFEESGNTDIEGIDTTNACYGGTAAVFNAVNWIESSSWDGRYALVVAGDIAVYATGNARPTGGVGAVALLIGPNAPLIFERGLRGTHMQHAYDFYKPDMLSEYPIVDGKLSIQCYLSALDRCYSVYCKKIHAQWQKEGNDKDFTLNDFGFMIFHSPYSKLVQKSLARMLLNDFLNDQNRDKNSIYSGLEAFGDVKLEDTYFDRDVEKAFMKASSELFSQKTKASLLVSNQNGNMYTSSVYGSLASVLAQYSPQQLAGKRIGVFSYGSGLAATLYSLKVTQDATPGSALDKITASLCDLKSRLDSRTGVAPDVFAENMKLREDTHHLVNYIPQGSIDSLFEGTWYLVRVDEKHRRTYARRPTPNDDTLDEGVGLVHSNIATEHIPSPAKKVPRLPATAAEPEAAVISNGEH | 2 |
